Values quoted from earlier work as cited in PMC8100458.
pKd, pKi: −log10 of the molar value.

Legend:
[1] = target: Asef (Homo sapiens) (UniProt Q9NR80); assay: ITC
[2] = target: Asef peptide 179-193 (Homo sapiens); assay: FP competition
[3] = target: Asef peptide 181-192 (Homo sapiens); assay: FP competition
[4] = target: Asef peptide 183-190 (Homo sapiens); assay: FP competition
[5] = target: Asef peptide 187-192 (Homo sapiens); assay: FP competition

Chain of UniProt Q9NR80 (Q9NR80 whole entry): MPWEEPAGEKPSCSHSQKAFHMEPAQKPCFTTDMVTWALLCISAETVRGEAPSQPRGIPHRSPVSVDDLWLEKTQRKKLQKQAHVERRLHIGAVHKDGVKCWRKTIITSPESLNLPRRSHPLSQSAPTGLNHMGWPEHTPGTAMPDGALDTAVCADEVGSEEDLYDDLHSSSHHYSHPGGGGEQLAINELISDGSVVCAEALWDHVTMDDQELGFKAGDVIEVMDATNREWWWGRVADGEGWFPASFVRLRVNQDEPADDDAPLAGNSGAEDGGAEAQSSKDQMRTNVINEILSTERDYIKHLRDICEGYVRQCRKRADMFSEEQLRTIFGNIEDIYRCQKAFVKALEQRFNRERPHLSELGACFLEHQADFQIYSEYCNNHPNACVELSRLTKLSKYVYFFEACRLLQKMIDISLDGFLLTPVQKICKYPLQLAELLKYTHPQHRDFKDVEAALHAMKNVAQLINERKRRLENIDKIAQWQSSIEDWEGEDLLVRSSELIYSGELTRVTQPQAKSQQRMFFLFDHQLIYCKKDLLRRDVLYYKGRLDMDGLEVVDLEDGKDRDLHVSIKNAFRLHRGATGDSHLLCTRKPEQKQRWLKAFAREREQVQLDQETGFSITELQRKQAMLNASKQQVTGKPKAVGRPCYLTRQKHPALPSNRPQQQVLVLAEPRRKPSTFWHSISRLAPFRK

pKd [1]: 7.75 | pKi [2]: 4.77 | pKi [3]: 4.31 | pKi [4]: < 3.52 | pKi [5]: < 3.52
Substance: APC (from UniProt P25054)
